Where no end group is shown, it is not given here. [ ]: non-standard residue; d: D form. Formula III = not defined here; Formula II = not defined here; Aib = CC(C)(N)C(=O)O
What was measured:
Assay in all cases: cell-based or functional assay
[1] = biological target: human glucagon receptor (GCGR) (human, UniProt P47871 26-477)
[2] = biological target: human GLP-1 receptor (GLP-1R) (human, UniProt P43220 24-463)
Target sequence in this assay (P43220 24-463): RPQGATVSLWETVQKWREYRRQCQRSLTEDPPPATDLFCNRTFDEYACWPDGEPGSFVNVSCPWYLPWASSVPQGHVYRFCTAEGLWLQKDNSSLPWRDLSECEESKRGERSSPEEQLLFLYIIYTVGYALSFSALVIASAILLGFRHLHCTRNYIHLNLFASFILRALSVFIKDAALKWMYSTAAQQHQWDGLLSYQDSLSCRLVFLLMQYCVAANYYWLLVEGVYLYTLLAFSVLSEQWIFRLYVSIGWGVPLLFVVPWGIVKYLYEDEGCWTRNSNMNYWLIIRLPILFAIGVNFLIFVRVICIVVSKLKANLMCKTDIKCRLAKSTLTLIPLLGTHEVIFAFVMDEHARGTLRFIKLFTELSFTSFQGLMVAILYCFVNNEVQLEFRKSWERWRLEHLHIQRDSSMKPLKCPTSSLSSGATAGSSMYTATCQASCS

[3] = biological target: human glucagon receptor (GCGR) (human, UniProt P47871 26-477); remark: listed apart in the source
[4] = biological target: human GLP-1 receptor (GLP-1R) (human, UniProt P43220 24-463); remark: listed apart in the source
Target sequence in this assay (P43220 24-463): as above

| Binder | GluR pEC 50 [1] [pEC50] | GLP-1R pEC 50 [2] [pEC50] | hGCGR pEC50 (cAMP) [3] [pEC50] | hGLP1 pEC50 (cAMP) [4] [pEC50] |
| --- | --- | --- | --- | --- |
| YSHGTFTSDYSKYLDK(Formula III)KYAQEFV[Aib]WLEDEPSSGAPPPS-OH (reading uncertain) [Compound B7] | 8.6 | < 6 |  |  |
| WSQGTFTSDYSKYLD[Aib]KRAQEFV[Aib]WLEDEPSSK(Formula II)APPPS-OH (reading uncertain) [Compound B17] | 10.5 | < 6 |  |  |
| YSHGTFTSDK(Formula II)SKYLD[Aib]KYAQEFV[Aib]WLEDEPSSGAPPPS-OH (reading uncertain) [Compound B4] | 9.1 | < 6 |  |  |
| YSHGTFTSDYSKYLDK(Formula III)KSAQEFV[Aib]WLEDEPSSGAPPPS-OH (reading uncertain) [Compound B15] | 9.9 | < 6 |  |  |
| WSQGTFTSDK(Formula III)SKYLD[Aib]KRAQEFV[Aib]WLEDEPSSGAPPPS-OH (reading uncertain) [Compound B24] | 8.2 | 6.8 |  |  |
| WSQGTFTSDYSKYLDK(Formula III)KRAQEFV[Aib]WLEDEPSSGAPPPS-OH (reading uncertain) [Compound B23] | 9.5 | 6.5 |  |  |
| YSHGTFTSDYSKYLD[Aib]KSAQEFV[Aib]WLEDEPSSK(Formula III)APPPS-OH (reading uncertain) [Compound B13] | 9.2 | < 6 |  |  |
| YSHGTFTSDYSKYLDK(Formula II)KSAQEFV[Aib]WLEDEPSSGAPPPS-OH (reading uncertain) [Compound B11] | 10.3 | 6.3 |  |  |
| YSHGTFTSDYSKYLD[Aib]KSAQEFVKWLEDEPSSGAPPPS-OH (not fully specified (residue 24); printed as YSHGTFTSDYSKYLD(Aib)KSAQEFVK****WLEDEPSSGAPPPS-OH; also: structure of Formula II substituent not given here) [Compound B10] | 9.9 | < 6 |  |  |
| YSHGTFTSDK(Formula III)SKYLD[Aib]KSAQEFV[Aib]WLEDEPSSGAPPPS-OH (reading uncertain) [Compound B16] | 8.5 | 8.3 |  |  |
| YSHGTFTSDK(Formula III)SKYLD[Aib]KYAQEFV[Aib]WLEDEPSSGAPPPS-OH (reading uncertain) [Compound B8] | 10.6 | < 6 |  |  |
| YSHGTFTSDYSKYLD[Aib]KYAQEFV[Aib]WLEDEPSSK(Formula III)APPPS-OH (reading uncertain) [Compound B5] | 9.6 | < 6 |  |  |
| YSHGTFTSDYSKYLDK(Formula II)KYAQEFV[Aib]WLEDEPSSGAPPPS-OH (reading uncertain) [Compound B3] | 11.4 | < 6 |  |  |
| YSHGTFTSDYSKYLD[Aib]KSAQEFVK(Formula III)WLEDEPSSGAPPPS-OH (reading uncertain) [Compound B14] | 9.3 | < 6 |  |  |
| YSHGTFTSDYSKYLD[Aib]KRAQEFV[Aib]WLEDEPSSGAPPPSE-OH (N-terminus assumed; SMILES CC(C)C[C@H](NC(=O)[C@H](Cc1ccc(O)cc1)NC(=O)[C@H](CCCCN)NC(=O)[C@H](CO)NC(=O)[C@H](Cc1ccc(O)cc1)NC(=O)[C@H](CC(=O)O)NC(=O)[C@H](CO)NC(=O)[C@@H](NC(=O)[C@H](Cc1ccccc1)NC(=O)[C@@H](NC(=O)CNC(=O)[C@H](Cc1c[nH]cn1)NC(=O)[C@H](CO)NC(=O)[C@@H](N)Cc1ccc(O)cc1)[C@@H](C)O)[C@@H](C)O)C(=O)N[C@@H](CC(=O)O)C(=O)NC(C)(C)C(=O)N[C@@H](CCCCN)C(=O)N[C@@H](CCCNC(=N)N)C(=O)N[C@@H](C)C(=O)N[C@@H](CCC(N)=O)C(=O)N[C@@H](CCC(=O)O)C(=O)N[C@@H](Cc1ccccc1)C(=O)N[C@H](C(=O)NC(C)(C)C(=O)N[C@@H](Cc1c[nH]c2ccccc12)C(=O)N[C@@H](CC(C)C)C(=O)N[C@@H](CCC(=O)O)C(=O)N[C@@H](CC(=O)O)C(=O)N[C@@H](CCC(=O)O)C(=O)N1CCC[C@H]1C(=O)N[C@@H](CO)C(=O)N[C@@H](CO)C(=O)NCC(=O)N[C@@H](C)C(=O)N1CCC[C@H]1C(=O)N1CCC[C@H]1C(=O)N1CCC[C@H]1C(=O)N[C@@H](CO)C(=O)N[C@@H](CCC(=O)O)C(=O)O)C(C)C) [Compound A26] |  |  | 11.1 | < 9 |
| WSQGTFTSDK(Formula II)SKYLD[Aib]KRAQEFV[Aib]WLEDEPSSGAPPPS-OH (reading uncertain) [Compound B20] | 11.1 | 6.5 |  |  |
| YSHGTFTSDYSKYLD[Aib]KSAQEFV[Aib]WLEDEPSSK(Formula II)APPPS-OH (reading uncertain) [Compound B9] | 11.1 | < 6 |  |  |
| YSHGTFTSDYSKYLD[Aib]KRAQEFV[Aib]WLEDEPSSGAPPPSS-OH (N-terminus assumed; SMILES CC(C)C[C@H](NC(=O)[C@H](Cc1ccc(O)cc1)NC(=O)[C@H](CCCCN)NC(=O)[C@H](CO)NC(=O)[C@H](Cc1ccc(O)cc1)NC(=O)[C@H](CC(=O)O)NC(=O)[C@H](CO)NC(=O)[C@@H](NC(=O)[C@H](Cc1ccccc1)NC(=O)[C@@H](NC(=O)CNC(=O)[C@H](Cc1c[nH]cn1)NC(=O)[C@H](CO)NC(=O)[C@@H](N)Cc1ccc(O)cc1)[C@@H](C)O)[C@@H](C)O)C(=O)N[C@@H](CC(=O)O)C(=O)NC(C)(C)C(=O)N[C@@H](CCCCN)C(=O)N[C@@H](CCCNC(=N)N)C(=O)N[C@@H](C)C(=O)N[C@@H](CCC(N)=O)C(=O)N[C@@H](CCC(=O)O)C(=O)N[C@@H](Cc1ccccc1)C(=O)N[C@H](C(=O)NC(C)(C)C(=O)N[C@@H](Cc1c[nH]c2ccccc12)C(=O)N[C@@H](CC(C)C)C(=O)N[C@@H](CCC(=O)O)C(=O)N[C@@H](CC(=O)O)C(=O)N[C@@H](CCC(=O)O)C(=O)N1CCC[C@H]1C(=O)N[C@@H](CO)C(=O)N[C@@H](CO)C(=O)NCC(=O)N[C@@H](C)C(=O)N1CCC[C@H]1C(=O)N1CCC[C@H]1C(=O)N1CCC[C@H]1C(=O)N[C@@H](CO)C(=O)N[C@@H](CO)C(=O)O)C(C)C) [Compound A25] |  |  | 11.3 | < 9 |
| YSHGTFTSDYSKYLD[Aib]KYAQEFVK(Formula III)WLEDEPSSGAPPPS-OH (reading uncertain) [Compound B6] | 10.1 | < 6 |  |  |
| YSHGTFTSDYSKYLD[Aib]KRAQEFV[Aib]WLEDEGGPSSGAPPPS-OH (N-terminus assumed; SMILES CC(C)C[C@H](NC(=O)[C@H](Cc1ccc(O)cc1)NC(=O)[C@H](CCCCN)NC(=O)[C@H](CO)NC(=O)[C@H](Cc1ccc(O)cc1)NC(=O)[C@H](CC(=O)O)NC(=O)[C@H](CO)NC(=O)[C@@H](NC(=O)[C@H](Cc1ccccc1)NC(=O)[C@@H](NC(=O)CNC(=O)[C@H](Cc1c[nH]cn1)NC(=O)[C@H](CO)NC(=O)[C@@H](N)Cc1ccc(O)cc1)[C@@H](C)O)[C@@H](C)O)C(=O)N[C@@H](CC(=O)O)C(=O)NC(C)(C)C(=O)N[C@@H](CCCCN)C(=O)N[C@@H](CCCNC(=N)N)C(=O)N[C@@H](C)C(=O)N[C@@H](CCC(N)=O)C(=O)N[C@@H](CCC(=O)O)C(=O)N[C@@H](Cc1ccccc1)C(=O)N[C@H](C(=O)NC(C)(C)C(=O)N[C@@H](Cc1c[nH]c2ccccc12)C(=O)N[C@@H](CC(C)C)C(=O)N[C@@H](CCC(=O)O)C(=O)N[C@@H](CC(=O)O)C(=O)N[C@@H](CCC(=O)O)C(=O)NCC(=O)NCC(=O)N1CCC[C@H]1C(=O)N[C@@H](CO)C(=O)N[C@@H](CO)C(=O)NCC(=O)N[C@@H](C)C(=O)N1CCC[C@H]1C(=O)N1CCC[C@H]1C(=O)N1CCC[C@H]1C(=O)N[C@@H](CO)C(=O)O)C(C)C) [Compound A27] |  |  | 12.1 | < 9 |
| WSQGTFTSDYSKYLD[Aib]KRAQEFVK(Formula II)WLEDEPSSGAPPPS-OH (reading uncertain) [Compound B18] | 10.2 | < 6 |  |  |
| YSHGTFTSDYSKYLD[Aib]KYAQEFVK(Formula II)WLEDEPSSGAPPPS-OH (reading uncertain) [Compound B2] | 11.1 | < 6 |  |  |
| YSHGTFTSDK(Formula II)SKYLD[Aib]KSAQEFV[Aib]WLEDEPSSGAPPPS-OH (reading uncertain) [Compound B12] | 11.5 | 7.2 |  |  |
| WSQGTFTSDYSKYLDK(Formula II)KRAQEFV[Aib]WLEDEPSSGAPPPS-OH (reading uncertain) [Compound B19] | 10.6 | 6.3 |  |  |

From patent US20180009871A1 (INTARCIA THERAPEUTICS, published 2018)
